# Numbered stars: 1 amine (or outer) side, 2 acyl side, 3 side chain; on linkers, the order of the positions; unused ones are H or OH. Bridge positions count the residues as written; N and C are the ends. Ends that are not written are not given here. acetyl = acetyl (haloacetyl before ring closure) on the side-chain amine, O=C(C[*:1])[*:2]; COCH2 = acetyl group that carries the bridge
# Target: T1, Recombinant Human FGFR2 alpha (IIIc) Fc Chimera Protein (Homo sapiens, UniProt P21802)
# T1 construct: Fc (chimera); purchased R&D systems 712-FR-050
# T1 sequence (P21802 with tags, fused parts or gaps limits assumed): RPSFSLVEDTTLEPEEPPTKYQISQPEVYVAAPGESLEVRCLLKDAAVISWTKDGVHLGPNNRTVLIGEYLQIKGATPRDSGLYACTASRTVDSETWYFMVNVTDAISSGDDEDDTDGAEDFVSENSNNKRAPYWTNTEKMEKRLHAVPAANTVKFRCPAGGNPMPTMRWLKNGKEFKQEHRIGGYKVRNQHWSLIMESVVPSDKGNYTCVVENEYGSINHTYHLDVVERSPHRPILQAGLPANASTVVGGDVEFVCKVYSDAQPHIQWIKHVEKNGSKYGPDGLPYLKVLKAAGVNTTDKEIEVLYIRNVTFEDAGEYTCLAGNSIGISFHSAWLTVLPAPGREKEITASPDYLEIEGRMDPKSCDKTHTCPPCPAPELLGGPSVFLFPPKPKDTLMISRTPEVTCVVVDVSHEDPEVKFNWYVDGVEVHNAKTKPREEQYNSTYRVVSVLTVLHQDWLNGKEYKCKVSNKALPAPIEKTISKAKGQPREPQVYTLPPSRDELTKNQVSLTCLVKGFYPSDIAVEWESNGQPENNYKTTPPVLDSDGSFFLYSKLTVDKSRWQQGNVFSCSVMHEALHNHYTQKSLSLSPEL
# Test: ELISA binding affinity of enzymatically synthesized peptide to FGFR
# Settings: ELISA luminescence signal at 10 nmol/L peptide, SEQ ID NO: 47 at 10 nmol/L standardized to 1; enzyme synthesis product
# Procedure, shortened: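 FGFR2 alpha (IIIc) Fc chimera (5 ng/well) was immobilized, and Myc-tagged peptide was bound 3 h at room temperature, then detected with anti-Myc antibody (2 h) and chemiluminescent substrate. Signal was corrected against FGFR-free wells. Score A–D was the luminescence at 10 nmol/L peptide, normalized to cyclic peptide SEQ ID NO: 47.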
substance,measurement,value
369 (DCLQFLYLYLYQK(COCH2)T; thioether 2-13) [compound 369],Evaluation result of binding affinity to FGFR,C (0.1 or more and less than 0.5)
370 (DCQLYYLYQYVLTK(COCH2)V; thioether 2-14) [compound 370],Evaluation result of binding affinity to FGFR,C (0.1 or more and less than 0.5)
371 (DCQLWYLYQYLIVK(COCH2)A; thioether 2-14) [compound 371],Evaluation result of binding affinity to FGFR,C (0.1 or more and less than 0.5)
372 (QCEQLKYLYQYVLK(COCH2)L; thioether 2-14) [compound 372],Evaluation result of binding affinity to FGFR,C (0.1 or more and less than 0.5)
373 (QCYNYQYIYQYIYK(COCH2)I; thioether 2-14) [compound 373],Evaluation result of binding affinity to FGFR,C (0.1 or more and less than 0.5)
374 (QCLQDLYRYLYLLK(COCH2)A; thioether 2-14) [compound 374],Evaluation result of binding affinity to FGFR,C (0.1 or more and less than 0.5)
375 (DCLQFIYQYLYTVK(COCH2)I; thioether 2-14) [compound 375],Evaluation result of binding affinity to FGFR,C (0.1 or more and less than 0.5)
376 (QCIQDLYLYLYFLK(COCH2)T; thioether 2-14 (inferred)) [compound 376],Evaluation result of binding affinity to FGFR,C (0.1 or more and less than 0.5)
377 (HCLHYLYQYLYTVK(COCH2)Y; thioether 2-14 (inferred)) [compound 377],Evaluation result of binding affinity to FGFR,C (0.1 or more and less than 0.5)
378 (QCPRQLYYLYLYLSK(COCH2)I; thioether 2-15 (inferred)) [compound 378],Evaluation result of binding affinity to FGFR,C (0.1 or more and less than 0.5)
379 (NCQLYYTYLYLHTLK(COCH2)F; thioether 2-15 (inferred)) [compound 379],Evaluation result of binding affinity to FGFR,C (0.1 or more and less than 0.5)
380 (YCPPQLVYLYQYLYK(COCH2)L; thioether 2-15 (inferred)) [compound 380],Evaluation result of binding affinity to FGFR,C (0.1 or more and less than 0.5)
381 (VCQEYYLYQYVYELK(COCH2)Y; thioether 2-15 (inferred)) [compound 381],Evaluation result of binding affinity to FGFR,C (0.1 or more and less than 0.5)
382 (PCDRQLYYLYQYIHK(COCH2)T; thioether 2-15 (inferred)) [compound 382],Evaluation result of binding affinity to FGFR,C (0.1 or more and less than 0.5)
383 (QCQLYYLYQYAYALK(COCH2)V; thioether 2-15 (inferred)) [compound 383],Evaluation result of binding affinity to FGFR,C (0.1 or more and less than 0.5)
384 (QCQLYYLYQYTIAIK(COCH2)T; thioether 2-15 (inferred)) [compound 384],Evaluation result of binding affinity to FGFR,C (0.1 or more and less than 0.5)
385 (QCAYYHLYQYLHQLK(COCH2)V; thioether 2-15 (inferred)) [compound 385],Evaluation result of binding affinity to FGFR,B (0.5 or more and less than 0.7)
386 (RCHHNFHHARQWGFFHHYK(COCH2)R; thioether 2-19 (inferred)) [compound 386],Evaluation result of binding affinity to FGFR,B (0.5 or more and less than 0.7)
387 (RCHHNFHHARQHRFFHHYK(COCH2)R; thioether 2-19 (inferred)) [compound 387],Evaluation result of binding affinity to FGFR,C (0.1 or more and less than 0.5)
388 (RCHHNFHHARQHGFFYHYK(COCH2)R; thioether 2-19 (inferred)) [compound 388],Evaluation result of binding affinity to FGFR,C (0.1 or more and less than 0.5)
389 (RCHHNFHHARQHGFFWHYK(COCH2)R; thioether 2-19 (inferred)) [compound 389],Evaluation result of binding affinity to FGFR,C (0.1 or more and less than 0.5)
390 (YCEENYLDPEQYQYFHYFK(COCH2)R; thioether 2-19 (inferred)) [compound 390],Evaluation result of binding affinity to FGFR,C (0.1 or more and less than 0.5)
391 (YCEENYLDPEQYQYFHYFK(COCH2)H; thioether 2-19 (inferred)) [compound 391],Evaluation result of binding affinity to FGFR,A (0.7 or more)
392 (YCHENYLDPEQYQYFHYFK(COCH2)Y; thioether 2-19 (inferred)) [compound 392],Evaluation result of binding affinity to FGFR,A (0.7 or more)
393 (YCHENYLDPEQHQYFHYFK(COCH2)Y; thioether 2-19 (inferred)) [compound 393],Evaluation result of binding affinity to FGFR,C (0.1 or more and less than 0.5)
394 (YCHENYLDPEQYQYFHYFK(COCH2)R; thioether 2-19 (inferred)) [compound 394],Evaluation result of binding affinity to FGFR,B (0.5 or more and less than 0.7)
395 (YCHENYLDPEQYQYFHYFK(COCH2)H; thioether 2-19 (inferred)) [compound 395],Evaluation result of binding affinity to FGFR,A (0.7 or more)
396 (YCEENYLDPEQHQYFIYFK(COCH2)R; thioether 2-19 (inferred)) [compound 396],Evaluation result of binding affinity to FGFR,B (0.5 or more and less than 0.7)
397 (YCEENYLDPEQHQYFIYFK(COCH2)H; thioether 2-19 (inferred)) [compound 397],Evaluation result of binding affinity to FGFR,A (0.7 or more)
398 (YCHENYLDPEQHQYFIYFK(COCH2)R; thioether 2-19 (inferred)) [compound 398],Evaluation result of binding affinity to FGFR,B (0.5 or more and less than 0.7)
399 (QK(COCH2)PQNFINPVQWRYFQHYCN; thioether 2-19 (inferred)) [compound 399],Evaluation result of binding affinity to FGFR,C (0.1 or more and less than 0.5)
400 (VCQQDNYFYPQQWFFFVHYK(COCH2)H; thioether 2-20 (inferred)) [compound 400],Evaluation result of binding affinity to FGFR,A (0.7 or more)
401 (QCQFLNYVNHVQWHYFWVFK(COCH2)S; thioether 2-20 (inferred)) [compound 401],Evaluation result of binding affinity to FGFR,C (0.1 or more and less than 0.5)
402 (PCEVYNYWYPTQWFFFTQFK(COCH2)K; thioether 2-20 (inferred)) [compound 402],Evaluation result of binding affinity to FGFR,A (0.7 or more)
403 (ACRRANWIHPIQWFFFHVYK(COCH2)H; thioether 2-20 (inferred)) [compound 403],Evaluation result of binding affinity to FGFR,B (0.5 or more and less than 0.7)
404 (DCIRPYDQLQLIYQYLYQLK(COCH2)K; thioether 2-20 (inferred)) [compound 404],Evaluation result of binding affinity to FGFR,C (0.1 or more and less than 0.5)
405 (QCLTQRVYLRQLAYYRLYRK(COCH2)I; thioether 2-20 (inferred)) [compound 405],Evaluation result of binding affinity to FGFR,C (0.1 or more and less than 0.5)
406 (PCEQQNFHSVIQWHFFAQYK(COCH2)N; thioether 2-20 (inferred)) [compound 406],Evaluation result of binding affinity to FGFR,A (0.7 or more)
407 (LCVQGNYQNPTQWYYFQLYK(COCH2)W; thioether 2-20 (inferred)) [compound 407],Evaluation result of binding affinity to FGFR,B (0.5 or more and less than 0.7)
408 (HCSQHQTTYYQIYAYLHAIK(COCH2)I; thioether 2-20 (inferred)) [compound 408],Evaluation result of binding affinity to FGFR,C (0.1 or more and less than 0.5)
409 (LCNNWENYFDWLQWSYYIAYK(COCH2)E; thioether 2-21 (inferred)) [compound 409],Evaluation result of binding affinity to FGFR,A (0.7 or more)
410 (WCQESSNYLAPLQWYFFNWYK(COCH2)T; thioether 2-21 (inferred)) [compound 410],Evaluation result of binding affinity to FGFR,A (0.7 or more)
411 (TCVDKDNWYNHVQWQYFFLYK(COCH2)Q; thioether 2-21 (inferred)) [compound 411],Evaluation result of binding affinity to FGFR,A (0.7 or more)
412 (QCEYALQYYRFYVAQRHWVDKL; Description of Artificial Sequence: Cyclic peptide) [compound 412],Evaluation result of binding affinity to FGFR,C (0.1 or more and less than 0.5)
413 (QCDQDAIQWVYDLQYYRVWHKV; Description of Artificial Sequence: Cyclic peptide) [compound 413],Evaluation result of binding affinity to FGFR,C (0.1 or more and less than 0.5)
414 (YCNYEWDGARRQIAYYRIFLKL; Description of Artificial Sequence: Cyclic peptide) [compound 414],Evaluation result of binding affinity to FGFR,C (0.1 or more and less than 0.5)
415 (YCDWVEVANARQLAYYTLYRKK; Description of Artificial Sequence: Cyclic peptide) [compound 415],Evaluation result of binding affinity to FGFR,C (0.1 or more and less than 0.5)
416 (LCTQFPASQRYYFALYRLWHKS; Description of Artificial Sequence: Cyclic peptide) [compound 416],Evaluation result of binding affinity to FGFR,C (0.1 or more and less than 0.5)
417 (LCQIYLYLTALQQGFEDFYPK(COCH2)N; thioether 2-21 via acetyl) [compound 417],Evaluation result of binding affinity to FGFR,C (0.1 or more and less than 0.5)
418 (DCLRQQVYQYLYILFQNDIAK(COCH2)D; thioether 2-21 via acetyl) [compound 418],Evaluation result of binding affinity to FGFR,C (0.1 or more and less than 0.5)
419 (DCHTREDWQIHHLYQLLYQLK(COCH2)Y; thioether 2-21 via acetyl) [compound 419],Evaluation result of binding affinity to FGFR,C (0.1 or more and less than 0.5)
420 (YCEAQPYYFQLYRLWHRQEK(COCH2)P; thioether 2-20 via acetyl) [compound 420],Evaluation result of binding affinity to FGFR,C (0.1 or more and less than 0.5)
421 (VCLDEQQALFHQYYRITRRK(COCH2)V; thioether 2-20 via acetyl) [compound 421],Evaluation result of binding affinity to FGFR,C (0.1 or more and less than 0.5)
422 (YCTQEQAFRQLAYYQIFRRSK(COCH2)S; thioether 2-21 via acetyl) [compound 422],Evaluation result of binding affinity to FGFR,C (0.1 or more and less than 0.5)
423 (WCFTEGIQSTVQLTYSYLYK(COCH2)L; thioether 2-20 via acetyl) [compound 423],Evaluation result of binding affinity to FGFR,C (0.1 or more and less than 0.5)

# — US20260008815A1, “CYCLIC PEPTIDE OR SALT THEREOF, AND USES THEREOF” (FUJIFILM Corporation, priority 2023, published 2026)
